Test: soluble on expression in E. coli; label from the status in PepcDB or PDB records

Row | Sequence | soluble on expression in E. coli
1 | MKESAASVAVRPQLREVFERFPADAHRTIEDEIHEMMKCYAFDDAIFLAELHYETDKSNNSESLLLYADCLYRANKKEECYGLLSSVKLSGARLFYLLARVSYDLNKIDDCRGALFEHDDGVIRKDILEEPRVASHANLLHAQMLCDESYMDLALESCQKSLDENILLWSAIITYLRFGGHDLAHTFEKHHRKSNGLYLDSPASSLKSETPSPNVPGPSSSSAASTAEPSRLESSVRRSTRGTIASANRETRNTTSNITPRQSTPGSTPSRINPTAPRKSSRISEMTTRRTESSVTGSRSSLFTEPERPHTRATHSSRNRANAALNSDTENSNASNTRTRSGIASVTRGSSSSQRTNPVRTSIRIADAAAAANKTAKTLSQRRRNEKQPLVSRNSNLARSLSGSTNSVASTASERPSEDEVSQINPPLPSVASSLNNDEPMDIVDGVYDPEYKKLFDVYQHIALIEESISTYNWRSADALFAKLDRDIILNTSMVRLQLGRACFEQSEYRECRNILDDLHKRRKWKVDGTELLSTSMWHLQDTHALSALSQILTTESRERPQSWCAAGNCFSLQRQHTQAIECMERAIQLDKRFAYAYTLLGHELIVQDELDKAAGSFRSALLLSPRDYRAWYGLGLVHLKKEQNLTALTNIQKAVNINPTNRAMLCTLSQIEQQRGQIDTALVLIDRALTLNPLDVACRFNRSRLLFEANRNEECLVELDKLKASSPDEAFIFHLLARVHRRMGNTHLALLNYSWAAELDPRGEQNITDSNVINREEYEDDEYGSPV | not soluble
2 | MGSDKIHHHHHHMRVAIDAFNIALAHGTGVATYGRTLASAAAGLGHEVNVLFGAGAGYSKVPLLNEIALAEVGAVSARGPSRAALARGIARGLAGARPAHDLPISGQVILPPGLRLDARRHSNVPNLFKAADLGFRAAGAFSKVKVPGTDLAHWTYPLPLKMVGARNVYTLHDLVPLRLPYTTADVKHAYYRLCRRIARDADHILTVSECSRRDIVRLLGVDEDRVTNLYQTSDIADAIAGVSEDFVARYVEGLLGVGMREYFLFFGAIEPKKNVARLIEAFLASAVQSPLVIVGGAGWGGEQDVKLLKSLAGMDTRKRIVWLGYLPRQMLAMLIAGARATVFPSLYEGFGLPVLESMELGTPVITSNVSSLPEVAQDAGLLVDPYDVRSLATAFLQLDADPGLRSQMSMRGREVAAGFSAEAYRGRLADFYAKF | not soluble
3 | MEHKKSTDSRSCSQLSTSMDNIQRNLMLLEIEKNEKSSFDDVITGAESDNGWEDCLRETESVQSQWITEQSTIAYPETTRVNCDGPQSYYELADLNYKPAENTVRLARVPSQYQLDALSEIFVFDVPQHIAVKKVEASFLPKYVNTSSEVAQNSVNTTPYFVNSEYVSEMLCNEYSETY | not soluble
4 | MLQPKRTKFRKVHKGRNRGIASGTEVSFGTYGLKAVGRCRLTARQIEAARRAMSRAVKRQGKIWIRVFPDKPITEKPLEVRMGKGKGNVEYWVALIQPGKVLYEMDGVSEEVARNAFALAAAKLPVKTTFVTKTVMLEHHHHHH | not soluble
5 | MEGLEAYDYHLPPEQIAQEGVEPRDMARLMVVYREGPFRVAHKRVRDLPEFLRPGDVLVFNESKVIPARLLARKPTGGKVEILLVRERSPGLWEALLGPARKAPPGTRLLLLSPKDLAPVPGLQAEVVAVEEDGVRLLRFQGDLVAHLEEVGEVPLPPYIKAKIPMERYQTVYARRPGSVAAPTAGLHFTPELLERLREMGVELRFLTLHVGPGTFRPVKGDPEKHEMHAEPYAIPEEVAEAVNRAKAEGRRVVAVGTTVVRALESAYREGVGVVAGEGETRLFIRPPYTFKVVDALFTNFHLPRSTLLMLVAAFLGRERTLEAYRLAVAEGYRFYSLGDAMLIL | soluble
6 | MSLNRPNHVAPKTLLETLPRDRAESYLNHCSGNSASASALYLWEMDMAAALHEVLSMTEVAVRGAIDAQLQSFAKSHGVASGEWIKERDSLPHLSELRFANGRPLFDHGSLRRMSRKQEGGRTRMHPRSQASTSHGDLIAQVMFGTWGAMLPDKNDSRPQSVQDAINGLWREALQEAFPQYREGHHHHHH | soluble
7 | MGSDKIHHHHHHMRKLGWKELDIILVTGDAYVDHPSFGVAFIGHYLVSHGFKVGIIAQPDWRTEKDITRLGRPRLFFGVTAGNVDSMVANYTASKKKRKTDDYTPGGIGGKRPDRATIVYTNLIKRFFPEVPVVLGGLEASLRRFAHYDWWSDRVRKSVLVDSKADLLVYGMGEKAVLGIAQILSRTGDIEKCKSIRGVVWWASQKPEEGIELPSYDEISENPEKYAEALKLQTWYTDPYKNIPIYQRQDTRYVVQNPPQPPLSQEELDRLYLLPFEREVHPFYAKMGKVKAIETVKFSITAVRGCFGNCSFCALTQHQTTHVSYRSKDSILEEVRILTKKKDFKGTITDVGGPTANLYGSGCSIRETKGQCQKFCLYPIVCKVVRPNHDEFISLLESIRQIPGVRNVFVSSGIRHDFVFAEKDPDVFIRELVKYTPGQLKLAPEHAHPKVLSLMRKPPVELFLEFKKRFETLAKKMGKRKYVIGYFIVGHPGEGWRENNYLRDFILKHLGYFPQQIQIFTPTPGTVSTAMYYSGVDPFTGEKVHVERSLKVRNKMKENVLFKKKGREKR | not soluble
8 | MSLQRPKVKGMDQTLATSRKTSNACNVLALCTRDNPAILTIAHRGFWTATAENSLASVRAAVAAGVEMIEIDTQATADGRLVVIHDETLDRTTTGKGTVSALPFEVVRAAKLKAGAGGDGADVTDECVPTLEEVLEEARGRITVNIDTKFTRDLPQVMETVLRLGVEDQVLVKTDVDPEAERFEVLGSHWFGRIPHMPMFPVRKGKFAEDLRRIEALKAPMIEVKFTDIADLAEGRAEMERQNIRLWINSLDVSHCLDFNDTRALSNPEAVWGALAEAGTGAIQTDEVEAFTAWLKAGAGETGRAWTREGHHHHHH | soluble
9 | GSPLPAAGFKKQQRKFQYGNYCKYYGYRNPSCEDGRLRVLKPEWFRGRDVLDLGCNVGHLTLSIACKWGPSRMVGLDIDSRLIHSARQNIRHYLSEELRLPPQTLEGDPGAEGEEGTTTVRKRSCFPASLTASRGPIAAPQVPLDGADTSVFPNNVVFVTGNYVLDRDDLVEAQTPEYDVVLCLSLTKWVHLNWGDEGLKRMFRRIYRHLRPGGILVLEPQPWSSYGKRKTLTETIYKNYYRIQLKPEQFSSYLTSPDVGFSSYELVATPHNTSKGFQRPVYLFHKARSPSH | soluble
10 | MTIADCDPQISFEKEVYFPGDEVKGRAWVSTTKNLKATSVEITFSGKTITAHNGKKIIKDKKCKKGEETYVEMKHEVWTPEDTENTFPSGDYEWNFSFELPKDCPPSFEGKYGFIRYSVLLHIAVPNGKPINVERAVTVSSMVDLNAVNAHEPAKIHVDNVAEYCHCLPCLPTRGNVIYTLQSPKCGYVAGENVIVSGQIENGTSKPMKIITAKLTRRITYREELKAKANAKKKADGADGFKSKLEEQILETKIERCNVPARSSKDFAFSFDIPAVVSTIRSSRLLAVEYFVTVWGDTGTCNRGGVAALNIIVGNVPLFLGSSSLPPRKFVDGEDAQSWTVDMKPVFTYQVPYYGH | not soluble
11 | GMVEVSQFKDAMAQLASAVHIVTTSGETGQHGFTASAVCSVTDSPPTLLVCINSNARAYEHFVKNRVLMVNTLTAEQSSLSNIFASPLSQEERFSNASWTTLTTGSPMLQDALINFDCEITEIKHVGTHDILICKIVDIHQSNAKNALVYRNRVYHSV | soluble
12 | MGSDKIHHHHHHMEAVERVNLLGLDGAALSELVGQWGGKPFRARQLQRWVHQRGADSFDAMTDLARDFRAQLARDCVIEALPVNTEQRSSDGTRKWLFDVGQGNAIETVFIPEDDRGTLCISSQAGCVVNCRFCSTGHQGFNRNLRASEIIGQLWWAKRVLEAAADTARLPGGKAGEDTRVISNVVMMGMGEPLLNYDQVLPALRLMLDDNAYGLSRRRVTVSTSGVVPMMDRLSQDCPVALAVSLHAPNDALRDELVPLNKKYPLNALLAACERYLAHAPRDFITFEYCMLDGINDTDQHARELIQLARQVRCKLNLIPFNPFPASGLKRSPSARVRVFAQRLMDAGIVTTVRKTRGDDIDAACGQLAGEVRDRTRITERNATRTIPIQQVHA | not soluble
13 | MLMSIREDVVEATSSIVPEKIHSDARNFSLVTSSSQVRSPLYLKSLDADGEDNSTVEKQITHSKKVADTELDRSLECLKENENDVKTNGEVELSAVEDALIQVVPEVSENQNPRKIGPYDFDQHANFLNS | not soluble
14 | MGSVRKASAWLGLVDDNDDERYYDDDYAEGQESGEAWVTDPRVKVASETAEEKGRRIGTVTPDSFRDARGIGELFRDGVPVIINLTAMEPTDAKRVVDFAAGLTFGLRGTIERVATRVFLLTPANTEIVSGEAAGRPTDGFFNQSLEHHHHHH | not soluble
15 | MGSDKIHHHHHHMVKGLRQLNNRVDILSLPGAEPEVEEAKAIDEKVNQPPTKKSSFSILSDLTKHVPEFVFELFELAFNLIAVIRLRKTVKEKNITLIYERYSLFMFASVWWAKRHNLPIVLEINDSCQVQRVRSLTFKKLAAKIEGWIFKNATGLVFISTRFKEVAEQAYGEISNSVVSPNGADLDKFIIDETSGLALRSKLGVENKIVLGYVGAFVHWHGIDWFVDLACQKLKETPELVLLLVGDGVAFEGIKKRVIEAGVESQVILPGKVPHHEVSSFLSAMDLGILPDSNDYGSPMKLFEFMAMGKGMIAPDFSPIAEVVQDNATSWLFPASNKQACIDKVFEIVNDREAHQEVGKKARAYIENERQWKHNAEQLLSLVTAREKA | not soluble
16 | MTARAVRGTKDLFGKELRMHQRIVATARKVLEAAGALELVTPIFEETQVFEKGVGAATDIVRKEMFTFQDRGGRSLTLRPEGTAAMVRAYLEHGMKVWPQPVRLWMAGPMFRAERPQKGRYRQFHQVNYEALGSENPILDAEAVVLLYECLKELGLRRLKVKLSSVGDPEDRARYNAYLREVLSPHREALSEDSKERLELNPMRILDSKSERDQALLKELGVRPMLDFLGEEARAHLKEVERHLERLSVPYELEPALVRGLDYYVRTAFEVHHEEIGAQSALGGGGRYDGLSELLGGPRVPGVGFAFGVERVALALEAEGFGLPEEKGPDLYLIPLTEEAVAEAFYLAEALRPRLRAEYALAPRKPAKGLEEALKRGAAFAGFLGEDELRAGEVTLKRLATGEQVRLSREEVPGYLLQALG | soluble
17 | MEWGVRFYVLSKQEWKQQTIDRCGQFYCLVPSNAGFHVYLFVTMDTGENAVFVFPPHFFIRYRERYWGKHSTLSGKILRKTYLKDNLVMRYGLQPGSEERVTGARIYSASSHGVALGIVLNDEAYLFKTFITYAMTKGEQIPLYMQEKLSMERAQVEYYNTGRLADLVELEERDRKRREMLMAEERRREEKEKRRAAEPGEAYFYVEGPLTLIMPDEEIQEENTGFWQRGTTMFCDSKLIEESQREMRELASVEARIQELKNIPQKAEEKKGVFKRLFGRYF | not soluble
18 | MGSDKIHHHHHHMNIDEAKQLANYFSDGSPGYILEFNNLEWDLYTKKIVGFGIQERFGGSKGNSFKEFLVSEDISDHLKFKLIYSLNETMKQIASIRQFENPSSYKSPKMNPLVTLLIEEAYHKKDSARLLNGTKFSKEVNLEYIQQLPTRISKDIQNKDFDSVLTKSNTMIDEVLKYIIENTKGKSIDNNTVRSKDLRNQAFERLNIKIDKDMDKRIKALVGALNTLSDKILEMRNSQGDAHAQGSRRIVINEEEAILTANSAMILCEYLFRKYEKRKRFSDAKES | not soluble
19 | EEPEHSYDNSWGMGYGSSNSRSYGSQNSRSYGSPRTPKLPKHSNKPAIALNVGDRVNHEKYGLGTVTKVDKMAPADSVTIDFGSSGTVRLMLIGSVPMEKL | not soluble
20 | MGSDKIHHHHHHMTKLAIMSDLHIDLNHFSTFETKTLINLLKKEKIDHLHIAGDISNHFTKDTLPFINNLKKHIKLSYNLGNHDMLDLTETEIQRLDFQTYRFDKKMLLAFHGWYDYSFSNNRDIKDVEKLKKTFWFDRRLKRPNNDVTIQASILKRLDEILAKVDSSNIIIAMHFVPHKQFTMTHPRFSPFNAFLGSQAYHDLFQKYHIKDVVFGHAHRSFGDVKIGETTYHSRPLGYIREWNLTIDFVNQNPNHNPNLTWNLSKRYNAVKHLDSFENYRKKYFEDELRNSMTIFDC | not soluble
